Source: patent publication US20090239794A1, “HCV F PROTEIN AND USES THEREOF” (priority 2004, published 2009)
Values joined by “and” are separate entries in the source; they are usually repeats but may differ in a detail not shown here. Equal entries are not always repeated.

Test system: C57Bl/6 mice
Experiment: Protocol 2: ARFP immunization of mice, total anti-ARFP Ig ELISA
Settings: for Titer (ARFP-specific Ig) / ELISA optical density (total anti-ARFP Ig), serum dilution 1/50 / ELISA optical density (total anti-ARFP Ig), serum dilution 1/100 / ELISA optical density (total anti-ARFP Ig), serum dilution 1/200 / ELISA optical density (total anti-ARFP Ig), serum dilution 1/400 / ELISA optical density (total anti-ARFP Ig), serum dilution 1/800 / ELISA optical density (total anti-ARFP Ig), serum dilution 1/1600: individual mice
[1] = 1st immunization (day 0), blood taken prior to immunization, listed as ARFP
[2] = 2nd immunization (day 14), blood taken prior to immunization, listed as ARFP
[3] = 3d immunization (day 29), blood taken prior to immunization, listed as ARFP
[4] = Sacrifice (day 52), listed as ARFP

B1: Fmut8Δ11: truncated recombinant HCV-1a F protein lacking the first 11 N-terminal residues shared with core; SEQ ID NO: 12; produced in E. coli (protein)
chain: PNVTPTVAHRTSSSRVAVRSLVEFTCCRAGALDWVCARRGRLPSGRNLEVDVSLSPRHVGPRAGPGLSPGTLGPSMAMRAADGRDGSCLPVALGLVGAPQTPGVGRAIWVRSSIPSRAASPTSWGTYRSSAPPLEALPGPWRMASGFWRTA
modifications: Hepatitis C virus
Question: For B1, which “Titer (ARFP-specific Ig)” value (1st immunization (day 0), blood taken prior to immunization) is on record?
Answer: 0

Question: What about the “ELISA optical density (total anti-ARFP Ig), serum dilution 1/50” value (shortened to “ELISA optical density … serum dilution 1/50”) [1] of the same molecule?
Answer: 0.211 and 0.209 and 0.199 and 0.218 and 0.323 and 0.278 and 0.229 and 0.166 and 0.236 and 0.243 and 0.247 and 0.208 and 0.206 and 0.205 and 0.217

Question: What about the “ELISA optical density (total anti-ARFP Ig), serum dilution 1/100” value (“ELISA optical density … serum dilution 1/100” below) [1] of the same molecule?
Answer: 0.128 and 0.115 (2×) and 0.174 and 0.208 and 0.186 and 0.171 and 0.152 and 0.161 (2×) and 0.145 and 0.134 and 0.132 and 0.142 and 0.127

Question: And the “ELISA optical density (total anti-ARFP Ig), serum dilution 1/200” value (shortened to “ELISA optical density … serum dilution 1/200”) [1]?
Answer: 0.123 and 0.150 and 0.128 and 0.136 (2×) and 0.114 and 0.111 and 0.121 and 0.113 (2×) and 0.104 and 0.117 and 0.164 and 0.144 and 0.140

Question: And the “ELISA optical density (total anti-ARFP Ig), serum dilution 1/400” value (“ELISA optical density … serum dilution 1/400” for short) [1]?
Answer: 0.132 and 0.164 and 0.114 and 0.118 and 0.116 and 0.121 and 0.133 and 0.115 and 0.104 and 0.110 and 0.120 and 0.128 and 0.191 and 0.138 and 0.126

Question: What about the “ELISA optical density (total anti-ARFP Ig), serum dilution 1/800” value (“ELISA optical density … serum dilution 1/800” below) [1] of the same molecule?
Answer: 0.119 and 0.138 and 0.113 and 0.118 and 0.115 (2×) and 0.117 and 0.128 and 0.108 and 0.103 and 0.105 and 0.123 and 0.134 and 0.137 and 0.114

Question: And the “ELISA optical density (total anti-ARFP Ig), serum dilution 1/1600” value (shortened to “ELISA optical density … serum dilution 1/1600”) [1]?
Answer: 0.138 and 0.122 and 0.109 (2×) and 0.110 and 0.116 and 0.124 and 0.108 and 0.106 and 0.107 and 0.105 and 0.119 and 0.129 and 0.127 and 0.114

Question: And the “ELISA optical density … serum dilution 1/50” value [2]?
Answer: 0.370 and 0.625 and 0.303 and 0.339 and 0.421 and 3.852 and 0.552 and 0.270 and 2.758 and 0.505 and >4.000 (3×) and 0.189 and 3.567

Question: And the “ELISA optical density … serum dilution 1/100” value [2]?
Answer: 0.187 and 0.306 and 0.155 and 0.164 and 0.156 and 1.842 and 0.204 and 0.153 and 0.560 and 0.191 and 3.323 and 0.141 and 3.184 and >4.000 and 1.876

Question: And the “ELISA optical density … serum dilution 1/200” value [2]?
Answer: 0.168 and 0.183 and 0.128 and 0.126 and 0.133 and 1.337 and 0.149 and 0.124 and 0.295 and 0.144 and 2.201 and 0.112 and 3.227 and >4.000 and 1.851

Question: What about the “ELISA optical density … serum dilution 1/400” value [2] of the same molecule?
Answer: 0.173 and 0.152 and 0.136 and 0.129 and 0.122 and 0.777 and 0.133 and 0.123 and 0.204 and 0.131 and 1.212 and 0.111 and 1.433 and 2.473 and 0.736

Question: What about the “ELISA optical density … serum dilution 1/800” value [2] of the same molecule?
Answer: 0.156 and 0.130 and 0.123 and 0.121 (2×) and 0.539 and 0.125 and 0.124 and 0.173 and 0.122 and 0.622 and 0.113 and 0.790 and 2.199 and 0.427

Question: What about the “ELISA optical density … serum dilution 1/1600” value [2] of the same molecule?
Answer: 0.137 and 0.126 and 0.118 and 0.122 and 0.119 and 0.546 and 0.125 and 0.146 and 0.154 and 0.115 and 0.337 and 0.113 and 0.462 and 1.296 and 0.271

Question: What about the “Titer (ARFP-specific Ig)” value [2] of the same molecule?
Answer: 0 (9×) and 200 (2×) and 50 and 400 (2×) and >1600

Question: What about the “ELISA optical density … serum dilution 1/50” value [3] of the same molecule?
Answer: 3.831 and 3.849 and 3.373 and 3.573 and 2.987 and 2.874 and 2.626 and 3.470 and 3.517 and 1.225 and 3.635 and 0.801 and 3.936 and 3.926 and >4.000

Question: And the “ELISA optical density … serum dilution 1/100” value [3]?
Answer: 3.525 and 3.898 and 2.898 and 1.264 and 0.982 and 1.468 and 1.197 and 2.613 and 1.648 and 0.560 and >4.000 (2×) and 0.304 and 3.959 and 3.978

Question: What about the “ELISA optical density … serum dilution 1/200” value [3] of the same molecule?
Answer: 2.387 and 3.359 and 1.364 and 1.013 and 0.684 and 0.906 and 0.657 and 3.189 and 1.518 and 0.303 and 3.924 and 0.240 and 3.936 and 3.853 and >4.000

Question: And the “ELISA optical density … serum dilution 1/400” value [3]?
Answer: 1.910 and 2.646 and 1.019 and 0.830 and 0.473 and 0.493 and 0.397 and 3.666 and 1.315 and 0.291 and 3.086 and 0.174 and 3.874 and 3.765 and >4.000

Question: What about the “ELISA optical density … serum dilution 1/800” value [3] of the same molecule?
Answer: 1.316 and 1.965 and 0.647 and 0.556 and 0.366 and 0.536 and 0.266 and 3.106 and 1.194 and 0.218 and >4.000 and 0.188 and 3.874 and 3.903 and 3.429

Question: And the “ELISA optical density … serum dilution 1/1600” value [3]?
Answer: 0.770 and 1.960 and 0.558 and 0.428 and 0.284 and 0.513 and 0.298 and 3.423 and 1.055 and 0.187 and 3.573 and 0.266 and 3.907 and 3.939 and 3.210

Question: What about the “Titer (ARFP-specific Ig)” value [3] of the same molecule?
Answer: 800 and >1600 (7×) and 400 (2×) and 100 (2×) and 200 and 50 and 0

Question: What about the “ARFP-specific Ig titer, mean+/−standard deviation” value (Protocol 2, before the 2nd immunization) of the same molecule?
Answer: 190.0+/−401.7

Question: What about the “anti-ARFP Ig titer, mean+/−standard deviation” value (Protocol 2, day 29) of the same molecule?
Answer: 883.3+/−694.7

Question: And the “anti-ARFP Ig titer, mean+/−standard deviation” value (Protocol 2, day 52)?
Answer: 1493+/−272.0

Question: And the “ELISA optical density … serum dilution 1/50” value [4]?
Answer: 3.593 and 3.623 and 2.931 and 3.934 and 3.865 and >4.000 and 3.796 and 3.843 and 3.456 and 3.855 and 3.717 and 3.534 and 3.636 and 3.780 and 3.783

Question: What about the “ELISA optical density … serum dilution 1/100” value [4] of the same molecule?
Answer: 3.071 and 3.581 and 2.555 and 3.459 and >4.000 (2×) and 3.873 and 3.848 and 3.622 and 3.966 and 1.524 and 2.193 and 3.518 and 2.628 and 3.952

Question: What about the “ELISA optical density … serum dilution 1/200” value [4] of the same molecule?
Answer: 1.902 and 1.744 and 1.431 and 2.418 and 2.646 and >4.000 and 3.807 and 3.818 and 3.641 and 3.184 and 3.740 and 1.047 and 2.844 and 2.829 and 3.142

Question: And the “ELISA optical density … serum dilution 1/400” value [4]?
Answer: 1.187 and 1.526 and 0.987 and 1.257 and 2.378 and >4.000 and 3.802 and 3.891 and 3.742 and 3.885 and 3.660 and 1.001 and 3.548 and 3.151 and 3.752

Question: What about the “ELISA optical density … serum dilution 1/800” value [4] of the same molecule?
Answer: 1.110 and 1.341 and 0.818 and 1.093 and 2.236 and >4.000 and 3.867 and 3.833 and 3.665 and 3.171 and 3.717 and 0.856 and 3.406 and 3.707 and 3.620

Question: And the “ELISA optical density … serum dilution 1/1600” value [4]?
Answer: 1.589 and 1.086 and 1.084 and 0.771 and 1.427 and >4.000 and 3.813 and 3.843 and 3.612 and 3.055 and 3.832 and 0.510 and 3.562 and 3.780 and 3.976

Question: What about the “Titer (ARFP-specific Ig)” value [4] of the same molecule?
Answer: >1600 (13×) and 800 (2×)
